How the values were obtained:
complement C3b [1] = target: T1, complement C3b (UniProt P01024 749-1663; P01024 749-1663); assay: SPR
complement C3b [2] = target: T1, complement C3b; assay: SPR; remark: listed apart in the source

T1 sequence (P01024 23-667, chain 1 of 2): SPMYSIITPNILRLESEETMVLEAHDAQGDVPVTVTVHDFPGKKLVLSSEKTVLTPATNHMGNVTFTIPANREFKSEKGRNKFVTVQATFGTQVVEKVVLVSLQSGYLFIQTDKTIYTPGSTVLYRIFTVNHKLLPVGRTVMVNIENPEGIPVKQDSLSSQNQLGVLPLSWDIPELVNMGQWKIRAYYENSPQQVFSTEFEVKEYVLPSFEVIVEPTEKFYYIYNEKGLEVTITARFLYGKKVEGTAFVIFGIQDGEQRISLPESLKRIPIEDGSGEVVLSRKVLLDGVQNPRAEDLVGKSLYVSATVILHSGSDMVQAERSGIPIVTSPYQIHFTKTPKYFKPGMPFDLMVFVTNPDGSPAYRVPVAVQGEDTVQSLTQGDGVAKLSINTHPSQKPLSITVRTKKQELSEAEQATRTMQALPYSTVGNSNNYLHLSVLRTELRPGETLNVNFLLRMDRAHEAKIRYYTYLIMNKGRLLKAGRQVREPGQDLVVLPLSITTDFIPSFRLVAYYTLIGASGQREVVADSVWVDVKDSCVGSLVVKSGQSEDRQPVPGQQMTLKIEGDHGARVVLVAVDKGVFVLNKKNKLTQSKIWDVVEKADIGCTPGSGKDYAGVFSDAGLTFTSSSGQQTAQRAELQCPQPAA
T1 sequence (P01024 749-1663, chain 2 of 2): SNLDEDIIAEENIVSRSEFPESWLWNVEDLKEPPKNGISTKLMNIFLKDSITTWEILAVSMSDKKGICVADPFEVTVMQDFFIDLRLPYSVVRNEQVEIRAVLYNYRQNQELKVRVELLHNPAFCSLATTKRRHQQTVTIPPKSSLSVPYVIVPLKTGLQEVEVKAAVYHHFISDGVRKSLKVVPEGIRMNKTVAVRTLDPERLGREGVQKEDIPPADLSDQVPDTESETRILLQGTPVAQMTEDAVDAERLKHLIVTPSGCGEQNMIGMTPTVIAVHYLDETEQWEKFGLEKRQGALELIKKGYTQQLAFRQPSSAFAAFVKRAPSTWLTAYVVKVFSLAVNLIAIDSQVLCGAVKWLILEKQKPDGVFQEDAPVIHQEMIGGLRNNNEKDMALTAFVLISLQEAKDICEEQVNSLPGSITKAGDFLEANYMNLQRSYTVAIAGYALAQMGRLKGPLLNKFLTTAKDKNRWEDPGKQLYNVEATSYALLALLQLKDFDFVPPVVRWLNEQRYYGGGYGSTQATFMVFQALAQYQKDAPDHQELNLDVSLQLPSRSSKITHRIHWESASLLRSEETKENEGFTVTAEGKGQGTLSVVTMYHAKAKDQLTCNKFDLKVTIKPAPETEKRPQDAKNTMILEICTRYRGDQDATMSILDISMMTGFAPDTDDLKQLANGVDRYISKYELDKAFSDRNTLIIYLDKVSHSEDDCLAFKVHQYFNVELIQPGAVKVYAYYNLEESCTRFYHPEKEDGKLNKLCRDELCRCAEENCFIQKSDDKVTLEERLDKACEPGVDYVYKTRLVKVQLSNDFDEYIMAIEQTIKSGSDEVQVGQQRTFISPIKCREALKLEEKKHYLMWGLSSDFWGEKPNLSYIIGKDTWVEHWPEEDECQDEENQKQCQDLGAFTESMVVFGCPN

koff (complement C3b [1]): 0.0233 s⁻¹ | Kd (complement C3b [2]): 11.3 nM
B1: serum-derived human factor H (sd-FH) (natural protein)
chain: EDCNELPPRRNTEILTGSWSDQTYPEGTQAIYKCRPGYRSLGNVIMVCRKGEWVALNPLRKCQKRPCGHPGDTPFGTFTLTGGNVFEYGVKAVYTCNEGYQLLGEINYRECDTDGWTNDIPICEVVKCLPVTAPENGKIVSSAMEPDREYHFGQAVRFVCNSGYKIEGDEEMHCSDDGFWSKEKPKCVEISCKSPDVINGSPISQKIIYKENERFQYKCNMGYEYSERGDAVCTESGWRPLPSCEEKSCDNPYIPNGDYSPLRIKHRTGDEITYQCRNGFYPATRGNTAKCTSTGWIPAPRCTLKPCDYPDIKHGGLYHENMRRPYFPVAVGKYYSYYCDEHFETPSGSYWDHIHCTQDGWSPAVPCLRKCYFPYLENGYNQNYGRKFVQGKSIDVACHPGYALPKAQTTVTCMENGWSPTPRCIRVKTCSKSSIDIENGFISESQYTYALKEKAKYQCKLGYVTADGETSGSITCGKDGWSAQPTCIKSCDIPVFMNARTKNDFTWFKLNDTLDYECHDGYESNTGSTTGSIVCGYNGWSDLPICYERECELPKIDVHLVPDRKKDQYKVGEVLKFSCKPGFTIVGPNSVQCYHFGLSPDLPICKEQVQSCGPPPELLNGNVKEKTKEEYGHSEVVEYYCNPRFLMKGPNKIQCVDGEWTTLPVCIVEESTCGDIPELEHGWAQLSSPPYYYGDSVEFNCSESFTMIGHRSITCIHGVWTQLPQCVAIDKLKKCKSSNLIILEEHLKNKKEFDHNSNIRYRCRGKEGWIHTVCINGRWDPEVNCSMAQIQLCPPPPQIPNSHNMTTTLNYRDGEKVSVLCQENYLIQEGEEITCKDGRWQSIPLCVEKIPCSQPPQIEHGTINSSRSSQESYAHGTKLSYTCEGGFRISEENETTCYMGKWSSPPQCEGLPCKSPPEISHGVVAHMSDSYQYGEEVTYKCFEGFGIDGPAIAKCLGEKWSHPPSCIKTDCLSLPSFENAIPMGEKKDVYKAGEQVTYTCATYYKMDGASNVTCINSRWTGRPTCRDTSCVNPPTVQNAYIVSRQMSKYPSGERVRYQCRSPYEMFGDEEVMCLNGNWTEPPQCKDSTGKCGPPPPIDNGDITSFPLSVYAPASSVEYQCQNLYQLEGNKRITCRNGQWSEPPKCLHPCVISREIMENYNIALRWTAKQKLYSRTGESVEFVCKRGYRLSSRSHTLRTTCWDGKLEYPTCAKR
modifications: native N-linked glycans, diantennary and a small number of triantennary sialylated glycans

Reference: article PMC11117068 (2024)
